Target: murine Htk ligand (murine)
Test: steady-state competition of 125I-Htk-Fc with unlabelled Htk-Fc on SV40MES 13 cells, Scatchard analysis

Kd: 3 nM
Substance: soluble Htk receptor-Fc fusion protein

Reference: patent US5624899
